Source: patent US20190204338A1 (PHYLOGICA, published 2019)
Where no end group is shown, it is not given here. His tag = polyhistidine tag from vector pDEST-HisMBP; MBP = not defined here

Experiments:
[1] = target: T1, MBP-MAP4K4-CNH (biotinylated, immobilised) (human, UniProt P0AEX9 27-392 = MBP; O95819 926-1213, limits assumed, biotinylated (site not given)); assay: BLI (Octet-RED), titration 100-1000 nM, global 1:1 fit, immobilised biotinylated MAP4K4-CNH
T1 construct: 45 ug/ml on streptavidin biosensors; also called CNH domain of MAP4K4; biotinylated MAP4K4-CNH
Procedure: (§1) Data were acquired with the Data Acquisition software version 6.2 and all steps/dilutions were performed in baseline buffer (PBS pH 8.0) at a rotation rate of 1000 rpm.

[2] = target: T1, MBP-MAP4K4-CNH (biotinylated, …); assay: BLI (Octet-RED), titration, compared with MBP-RAP2A in the same system
Procedure: as §1

[3] = target: T1, MBP-MAP4K4-CNH (biotinylated, …); assay: BLI (Octet-RED), single concentration 1 uM, local 1:1 fit, immobilised biotinylated MAP4K4-CNH
Procedure: as §1

B1: MBP-25C3 (Phylomer 25C3 expressed as a His-MBP tagged fusion) (peptide)
chain: {His tag-MBP}-LGAAGPTHYDHLDCAR
modifications: reading uncertain; also: linker between MBP and peptide not given here
notes: Purified as monomeric protein; also called 25C3 fusion peptide; not shown: His tag of vector pDEST-HisMBP
- Kd [1]: 28 nM
- koff [1]: 0.0001 s⁻¹
- fold lower binding affinity than RAP2A [2]: 5 fold
- Kd [3]: 23.5 nM
- koff [3]: 4.4e-05 s⁻¹
